These binders were tested against acetylcholine receptor (assay: SPR, receptor immobilized, peptide 10 uM).
RKHIK [5mer-1075] gave a Binding affinity (RU) of 26 RU. RCDFR [5mer-776] showed a Binding affinity (RU) of 17 RU. KFEKK [5mer-1076] gave a Binding affinity (RU) of 21 RU. In the case of RYNWK [5mer-777], the Binding affinity (RU) is reported as 28 RU. With KADMK [5mer-1077] the Binding affinity (RU) was 12 RU. In the case of KKDHK [5mer-778], the Binding affinity (RU) is reported as 24 RU. In the case of KEAWK [5mer-1078], the Binding affinity (RU) is reported as 19 RU. With KYPPR [5mer-779] the Binding affinity (RU) was 21 RU. With KYTGR [5mer-1079] the Binding affinity (RU) was 31 RU. For RDSHK [5mer-780], the Binding affinity (RU) was 27 RU. In the case of RYTHK [5mer-1080], the Binding affinity (RU) is reported as 25 RU. RIDPR [5mer-781] gave a Binding affinity (RU) of 28 RU. RPNVR [5mer-1081] showed a Binding affinity (RU) of 13 RU. With KANAR [5mer-782] the Binding affinity (RU) was 32 RU. RACFR [5mer-1082] gave a Binding affinity (RU) of 11 RU. Binder KCKVR [5mer-783] has a Binding affinity (RU) of 29 RU. Work on KFSVR [5mer-1083] yielded a Binding affinity (RU) of 31 RU. RACEK [5mer-784] gave a Binding affinity (RU) of 21 RU. Work on RTHDR [5mer-1084] yielded a Binding affinity (RU) of 21 RU. Binder KPTIR [5mer-785] has a Binding affinity (RU) of 31 RU. In the case of RTTER [5mer-1085], the Binding affinity (RU) is reported as 14 RU. RFNKK [5mer-786] showed a Binding affinity (RU) of 29 RU. For RIWDR [5mer-1086], the Binding affinity (RU) was 19 RU. In the case of KDNIR [5mer-787], the Binding affinity (RU) is reported as 17 RU. KKKKR [5mer-1087] showed a Binding affinity (RU) of 11 RU. KYHGK [5mer-788] was tested, and the Binding affinity (RU) was 16 RU. With KAKKK [5mer-1088] the Binding affinity (RU) was 16 RU. KFWIR [5mer-789] showed a Binding affinity (RU) of 12 RU. Binder KTHHR [5mer-1089] has a Binding affinity (RU) of 29 RU. Work on REAGK [5mer-790] yielded a Binding affinity (RU) of 33 RU. KISGK [5mer-1090] was tested, and the Binding affinity (RU) was 31 RU. With KTKMR [5mer-791] the Binding affinity (RU) was 26 RU. Work on KTEHR [5mer-1091] yielded a Binding affinity (RU) of 29 RU. RMEKK [5mer-792] was tested, and the Binding affinity (RU) was 31 RU. With KPMVK [5mer-1092] the Binding affinity (RU) was 12 RU. KKPHR [5mer-793] showed a Binding affinity (RU) of 19 RU. Work on REEDK [5mer-1093] yielded a Binding affinity (RU) of 32 RU. KEAPK [5mer-794] showed a Binding affinity (RU) of 20 RU. For RYSMK [5mer-1094], the Binding affinity (RU) was 15 RU. RTKKR [5mer-795] was tested, and the Binding affinity (RU) was 20 RU. KAEKR [5mer-1095] gave a Binding affinity (RU) of 27 RU. KNWVR [5mer-796] gave a Binding affinity (RU) of 17 RU. Work on RPTDK [5mer-1096] yielded a Binding affinity (RU) of 15 RU. In the case of KETHK [5mer-797], the Binding affinity (RU) is reported as 15 RU. With KPDIR [5mer-1097] the Binding affinity (RU) was 28 RU. RETMK [5mer-798] was tested, and the Binding affinity (RU) was 13 RU. In the case of RFHGR [5mer-1098], the Binding affinity (RU) is reported as 31 RU. Work on RRWLYK [6mer-1-136] yielded a Binding affinity (RU) of 148 RU. RRLFRR [6mer-1-137] gave a Binding affinity (RU) of 121 RU. RKVVTR [6mer-1-138] gave a Binding affinity (RU) of 124 RU. Work on KRRFLR [6mer-1-139] yielded a Binding affinity (RU) of 122 RU. KRQVQR [6mer-1-140] showed a Binding affinity (RU) of 148 RU. RKLYQK [6mer-1-141] showed a Binding affinity (RU) of 141 RU. Work on KKVYYK [6mer-1-142] yielded a Binding affinity (RU) of 123 RU. KRGVLR [6mer-1-143] was tested, and the Binding affinity (RU) was 145 RU. With RKRYTR [6mer-1-144] the Binding affinity (RU) was 148 RU. RKVFQR [6mer-1-145] gave a Binding affinity (RU) of 141 RU. Binder KRGRRR [6mer-1-146] has a Binding affinity (RU) of 139 RU. KKQIQR [6mer-1-147] gave a Binding affinity (RU) of 125 RU. In the case of RKLRCR [6mer-1-148], the Binding affinity (RU) is reported as 146 RU. RRWVCK [6mer-1-149] gave a Binding affinity (RU) of 131 RU. With RKRQCR [6mer-1-150] the Binding affinity (RU) was 142 RU. With KRGVRR [6mer-1-151] the Binding affinity (RU) was 145 RU. KRVIRR [6mer-1-152] showed a Binding affinity (RU) of 154 RU. With KKWQQR [6mer-1-153] the Binding affinity (RU) was 146 RU. KKLYSR [6mer-1-154] showed a Binding affinity (RU) of 153 RU. Binder RRVRSR [6mer-1-155] has a Binding affinity (RU) of 127 RU. For RRSVTK [6mer-1-156], the Binding affinity (RU) was 154 RU. Binder KKSLLR [6mer-1-157] has a Binding affinity (RU) of 123 RU. In the case of RRLIYR [6mer-1-158], the Binding affinity (RU) is reported as 131 RU. In the case of KRLRRK [6mer-1-159], the Binding affinity (RU) is reported as 139 RU. With RRVIQR [6mer-1-160] the Binding affinity (RU) was 149 RU. For KRRYCK [6mer-1-161], the Binding affinity (RU) was 139 RU. For KKSLSK [6mer-1-162], the Binding affinity (RU) was 142 RU. In the case of KRLQTK [6mer-1-163], the Binding affinity (RU) is reported as 147 RU. KRGQYK [6mer-1-164] gave a Binding affinity (RU) of 145 RU. For KKWFTK [6mer-1-165], the Binding affinity (RU) was 148 RU. RRWYSK [6mer-1-166] showed a Binding affinity (RU) of 148 RU. In the case of RRRYQR [6mer-1-167], the Binding affinity (RU) is reported as 122 RU.

From US20250011363A1, “OPTIMIZED SHORTENED PEPTIDE THAT BINDS TO ACETYLCHOLINE RECEPTOR, AND USE THEREOF” (SKINMED CO., LTD., priority 2021, published 2025)
